Measurements from patent US12723255B2, “Herbicide tolerance genes and methods of use thereof” (priority 2014, dated 2026).
Changes are numbered by the printed parent chain. Like-named read-outs stand apart in the source and are kept apart here.

B1: MON-HT52: engineered oxygenase protein, amino acid sequence SEQ ID NO:4 (protein)
chain: MHAALSPLSQRFERIAVQPLTGVLGAEITGVDLREPLDDSTWNEILDAFHTYQVIYFPGQAITNEQQIAFSRRFGPVDPVPLLKSIEGYPEVQMIRREANESGRVIGDDWHTDSTFLDAPPAAVVMRAIDVPEHGGDTGFLSMYTAYDALSDGLKKLISGLNVVHSATRVFGSLYQAQNRRFSNTSVKVMDVDAGDRETVHPLVVTHPGSGRKGLYVNQVYCQRIEGMSEKESEPLLSFLFAHATKPEFTCRVRWKKDQVLVWDNLCTMHYAINDYHGQTRILHRTTVGGVRPAR
B2: MON-HT53: engineered oxygenase protein, amino acid sequence SEQ ID NO:7 (protein)
chain: B1 chain with D38S, Q67H, T112S
B3: MON-HT54: engineered oxygenase protein, amino acid sequence SEQ ID NO:9 (protein)
chain: B1 chain with Q67H, I106L, D193A, A194D, L261V
B4: MON-HT14: engineered oxygenase protein, amino acid sequence SEQ ID NO:48 (protein)
chain: MHAALTPLTNKYRHIDVQPLTGVLGAEITGVDLREPLDDSTWNEILDAFHTYQVIYFPGQAITNEQHIAFSRRFGPVDPVPILKSIEGYPEVQMIRREANESSRYIGDDWHADSTFLDAPPAAVVMRAIEVPEYGGDTGFLSMYSAWETLSPTMQATIEGLNVVHSATKVFGSLYQATNWRFSGTSVKVMDVDAGDRETVHPLVVTHPVTGRRALYCNQVYCQKIQGMTDAESKSLLQFLYEHATQFDFTCRVRWKKDQVLVWDNLCTMHRAVPDYAGKFRYLTRTTVAGDKPSR
B5: MON-HT18: engineered oxygenase protein, amino acid sequence SEQ ID NO:52 (protein)
chain: B4 chain with G184N

How the values were obtained:
[1] = enzyme kinetic measurements with purified protein; type: biochemical; details: for Km: 0-1280 uM substrate; for Vmax Fenoxaprop / Vmax Fluazifop / Vmax Haloxyfop / Vmax Quizalofop-P: relative values
Procedure: (§1) The high-throughput herbicide degradation enzyme assay was designed to assay the enzymatic activity of the engineered proteins towards various herbicides using crude bacterial extract. The engineered protein's oxygenase activity (that is, its enzymatic activity) was measured by an end point colorimetric assay utilizing detection of phenol products through measurement of absorbance at 510 nm from 4-aminoantipyrine and potassium ferricyanide. This assay was based on the assay described in Fukomori and Hausinger, Journal of Biological Chemistry (1993) 268(32):24311-24317. Enzyme reactions were assayed in 96-well plates in a total volume of 150ul that contained: 20 mM MOPS pH 6.75, 50-200 uM NH4FeSO4, 50-200 uM sodium ascorbate, 1 mM alpha-ketoglutarate (aKG), 10 ul of E. coli cell lysate containing expressed engineered protein, and substrate (either an AOPP herbicide or phenoxy acid herbicide). […] Absorbance measurements were made on a standard laboratory spectrometer. Assays were scaled as needed to enhance throughput. Standard curves were generated using purified protein or product standards.
Further protein characterization, such as Km, Vmax, and crystal structure analysis, was performed using the five engineered proteins from Table 2. For this detailed analysis, purified protein was prepared as follows: 2 ml overnight cultures of E. coli expressing a transgene encoding a given MON-HT protein were used to inoculate 500 ml of broth and grown at 37° C. for 4 hours followed by culture at 15° C. for approximately 36 hours. Then 250 ml of the 500 ml bacterial culture was pelleted by centrifugation and resuspended in 25 ml of extraction buffer (20 mM Tris, pH 7.8, 300 mM NaCl, 5 mM beta-mercaptoethanol (BME), 20 mM imidazole (Fluka/Sigma-Aldrich, St. Louis, MO), 125 units/ml of benzonase and 10K units/ml of lysozyme (Novagen, Darmstadt, Germany). The cell slurry was passed through a cell disruptor once at 20000 psi and then this cell lysate was clarified by centrifugation at 35,000×g for 20 min at 4° C. The supernatant containing the soluble His-tagged proteins was used for protein purification. For this purification, the supernatant was applied to a 1 ml HisTrap™ FF column (Nickel Sepharose) (GE Healthcare, Piscataway, NJ) using an AKTaxpress™ system (GE Healthcare, Piscataway, NJ) following the standard manufacturer's protocol. The wash buffer consisted of: 20 mM Tris pH 7.8, 300 mM NaCl, 20 mM imidazole and 5 mM BME. The composition of elution buffer was the same as the wash buffer except with 500 mM imidazole. The eluate from the nickel column was desalted on a Quick Spin Protein Sephadex G-25 fine column (Roche Applied Science, Indianapolis, IN) following the manufacturer's protocol. The eluted protein was in buffer consisting of: 20 mM Tris pH 7.8, 50 mM NaCl and 5 mM BME. Protein extract purity was assessed by SDS-PAGE analysis. Protein concentration was determined by Bradford assay using Bio-Rad Protein Assay dye reagent (Biorad, Hercules, CA, cat no 500-0006).
Purified protein for the five engineered proteins was analyzed using the enzyme assay described in this Example 1, but with four different AOPP herbicides as substrates: quizalofop-P, haloxyfop, fenoxaprop, and fluazifop. Standard curves were generated using 2,4-dichlorophenol (2,4-DCP), which was used to produce a general phenol standard curve. The amount of phenol generated in the assay by the engineered proteins was calculated based on this standard curve. The controls were purified wild-type enzyme, no enzyme, and no substrate. Enzyme kinetic measurements of the five engineered proteins was done using 0, 20, 40, 80, 160, 320, 640, or 1280 uM of quizalofop-P, haloxyfop, fenoxaprop, or fluazifop herbicides.

[2] = high-throughput enzyme assay with crude bacterial extract; type: biochemical; details: relative to wild-type RdpA; for Average quizalofop-P activity: average of replicates
Procedure: The high-throughput bacterial protein expression was achieved by synthesizing a recombinant DNA molecule encoding each engineered protein and cloning this into a bacterial expression vector with a C-terminal histidine tag (His-tag) operably linked to the recombinant DNA molecule. The vectors were used to transform Escherichia coli (E. coli), and bacterial expression of the engineered proteins was induced. Overnight E. coli cultures were grown in 96-well plates and the cultures were centrifuged to pellet the bacteria. The bacterial pellets were lysed by adding 100 ul lysis master mix (10 ml of Bacteria Protein Extraction Reagent (B-PER®) II (Pierce Biotechnology, Rockford, IL; cat. no. 78260); 10 ul Lysozyme (10 ug/ml final; Lysozyme American Bioanalytical, Natick, MA; cat. no. AB011780-00005); and 40 ul Benzonase® Nuclease (100 Units/ml final, Novagen, Darmstadt, Germany; cat no 71206-3)) to each well. The plates were vortexed then incubated for 30 minutes at 4° C. 400 ul of MOPS buffer (pH 6.57) was added to cach well and the debris pelleted by centrifugation. The lysate supernatant was carefully removed and used as the crude bacterial extract for subsequent enzymatic analysis.
as §1
Using this high-throughput bacterial protein expression and enzyme assay system, activities of approximately 1200 engineered proteins were measured relative to the activity of a selected wild-type protein, RdpA. In a 96 well plate assay, there were 3 controls (crude bacterial extract without an engineered protein) and 3 positive controls (crude bacterial extract with wild-type protein). The absorbance of the wells was measured and the protein activity was calculated using the following formula:
[formula] where, Activityi is the activity of the sample, Absorbancei is the absorbance of the sample, AbsorbanceWT is the absorbance of the wells containing extract from E. coli expressing the wild-type enzyme, and AbsorbancepET is the absorbance of the wells containing extract from E. coli without an engineered protein. Activity for each unique engineered protein was measured in duplicate and was reported as an average of the two measurements.
Using the information learned from the first assays, protein engineering was then done as described previously to produce additional engineered proteins, which were tested as described in this Example 1. The results of the high-throughput enzyme assay with quizalofop-P as the substrate for five of these additional engineered proteins are provided in Table 2.

[3] = system: transgenic soybean plants; assay: R0 soybean 2,4-D spray test of 2,4-D optimized variants; type: in vivo; details: for tolerance to 2,4-D treatment: 2× application rate, soy
Text: An additional five engineered proteins optimized for activity for 2,4-D were then selected for analysis in transgenic soybean. DNA constructs were produced for expressing MON-HT13 (SEQ ID NO:47), MON-HT14 (SEQ ID NO:48), MON-HT15 (SEQ ID NO:49), MON-HT17 (SEQ ID NO:51), and MON-HT18 (SEQ ID NO:52) with codon usage optimized for dicot expression. The operably linked expression elements (promoter, leader, intron, CTP, and 3′UTR) were identical in all of the constructs. Leaf samples were taken from R0 plantlets and single copy plants were identified using a PCR-based assay. When the single-copy R0 plants had approximately two to three trifoliate leaves, they were treated with either 1.5 lb ae/acre (2×) or 3.0 lb ae/acre (4×) of 2,4-D. Seven days after herbicide application, the plants were scored for herbicide injury based on the percent area of the plant showing injury, as indicated above.

[4] = 2,4-D rate 2X (1.5 lb ae/acre), single copy R0 soy, seven days after application

| Molecule | Km ([1]; read-out: Km Fenoxaprop) [µM] | Km ([1]; read-out: Km Fluazifop) [µM] | Km ([1]; read-out: Km Haloxyfop) [µM] | Km ([1]; read-out: Km Quizalofop-P) [µM] | Vmax Fenoxaprop [1] | Vmax Fluazifop [1] | Vmax Haloxyfop [1] | Vmax Quizalofop-P [1] | Replicate 1 quizalofop-P activity [2] | Replicate 2 quizalofop-P activity [2] | Replicate 3 quizalofop-P activity [2] | Average quizalofop-P activity [2] | Events with <20% injury [3, 4] | tolerance to 2,4-D treatment [3] | Events with 20-50% injury [3, 4] |
| --- | --- | --- | --- | --- | --- | --- | --- | --- | --- | --- | --- | --- | --- | --- | --- |
| B1 | 490 | 14 | 280 | 420 | 420 | 43 | 45 | 39 | 92.17 | 54.46 | 89.75 | 78.79 | – | – | – |
| B2 | 1100 | 1 | 290 | 690 | 640 | 40 | 64 | 95 | 105.34 | 105.31 | 106.13 | 105.60 | – | – | – |
| B3 | 2100 | – | 380 | 560 | 630 | – | 40 | 32 | 131.85 | 149.77 | 130.56 | 137.39 | – | – | – |
| B4 | – | – | – | – | – | – | – | – | – | – | – | – | 9 | excellent tolerance | – |
| B5 | – | – | – | – | – | – | – | – | – | – | – | – | 11 | excellent tolerance | 1 |
